Measured values: the supplement of paper PMC9170038

Test system: MS2 coat protein
Assay: apparent KD of MS2 coat protein; designed switch direction (-1 OFF switch, 1 ON switch): -1; higher = weaker reporter binding
How it was run: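 An oligonucleotide input, 200 uM small-molecule ligand, or no input was present during titration of SNAP-549-labelled MS2 coat protein, which was doubled from 0.7 or 1.5 nM to 3 µM. Designed RNA switches had been transcribed on Illumina chips by stalled E. coli RNA polymerase. Apparent KD per design is the median over clusters of curves fitted to normalised cluster fluorescence.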

[1] = Eterna round: R95, input ligand: microRNA oligo, concentration not stated
[2] = input ligand: microRNA oligo, concentration not stated
[3] = Eterna round: R95, input ligand: FMN 200 uM
[4] = Eterna round: R95, input ligand: none

| Sequence | apparent KD of MS2 coat protein (input ligand: FMN 200 uM) [nM] | apparent KD of MS2 coat protein (input ligand: none) [nM] | also measured |
| --- | --- | --- | --- |
| CCUCUACAUGAGGAUCACCCAUGUCAGGAUAUCGUGUGUUUUUUUUCGGCCGCGCGUGCGAGAAGGGACGUCUU (puzzle: Exclusion 1) |  |  | apparent KD of MS2 coat protein [1]: 30.1 nM |
| CCUCUACAUGAGGAUCACCCAUGUGAGGAUAUCCUGCGAGGAUCAAAAGAUCCUCGUGGGAGAAGGCAUAUGAA [Omei Ex1 A1] (Eterna round: R97, puzzle: Exclusion 1) | 34.3 | 22.9 |  |
| CCUCUACAUGAGGAUCACCCAUGUGAGGAUAUCCUGCGAGGAUCAAAAGAUCCUCGUGGGAGAAGGCAUAUGCA [Omei Ex1 A5] (Eterna round: R97, puzzle: Exclusion 1) | 22.2 | 21 |  |
| CCUCUAUUUGUGAGGAUAUCGAUAAAAUGGAUUGUCGAGAAGGCACAUGAGGAUCACCCAUGUAUUGAACAGCA [JR_BMEx4_Sub022] (Eterna round: R97, puzzle: Brourd's mod of Exclusion 4) | 231 | 40.4 |  |
| CCUCUGUGAGGAUAUCGCGGCGGGCUAACUCGCAAACAAAACGAGAAGGCACAUGAGGAUCACCCAUGUAGGUG [Cetiis] (Eterna round: R97, puzzle: Exclusion 4) | 39.1 | 262 |  |
| CCUCUGUGAGGAUAUGGGCCCGGGCCCGUGAGGGCCCGGGCCCAGAAGGCACAUGAGGAUCACCCAUGUGGCUU [Energy optimization 2] (Eterna round: R97, puzzle: Exclusion 4) | 94.4 | 20 |  |
| CCUGCACAUGAGGAUCACCCAUGUUAGGAUAUCUCGCCGCCUAAACGAAUGGUGGCCCAGAGAAGGAACAGGGC [Riatbege] (puzzle: Exclusion 1) |  |  | apparent KD of MS2 coat protein [1]: 26.5 nM |
| CCUGCACAUGAGGAUCACCCAUGUUAGGAUAUCUCGCCGUCGGCUUGCCGACGGUAUUAGAGAAGGGACAAGGG [JL Tixe mod 3] (puzzle: Exclusion 1) |  |  | apparent KD of MS2 coat protein [1]: 39.5 nM |
| CCUGUACAUGAGGAUCACCCAUGUUAGGAUAUUCAGCCCGUCGAGUAUAAGGGUUUAAGAAGAAGGGACGUGGC [Beanused] (puzzle: Exclusion 1) |  |  | apparent KD of MS2 coat protein [1]: 13.9 nM |
| CCUGUUCGGGUUGGUUUGGGCGGGACAUGAGGAUCACCCAUGUAGGAUAUUUUGGCUGCCGGUCGGGAGAAGGACAUGCUUGGG [-22.4, -21.3 kcal, 17% A] (Eterna round: R96, puzzle: Exclusion NG 3) | 135 | 98.3 | apparent KD of MS2 coat protein [2]: 61.3 nM |
| CCUUAUCCACAGGAUAUGCUCAUCUAAUGAUGAGCAGAAGGGUGGACAUGAGGAUCACCCAUGUUUAUCAAUGG [Omei Ex6 D3] (Eterna round: R97, puzzle: Exclusion 6) | 675 | 1040 |  |
| CCUUCAGUAGUUAGGAUAUUUGGCGUCGAGGCGCAAGAGAAGGGACAUGAGGAUCACCCAUGUGAGUAUGGUAG [Eternabot (L1) Solution 35] (Eterna round: R97, puzzle: Brourd's mod of Exclusion 4) | 61.9 | 63.1 |  |
| CCUUUGUCAGGAUAUCAGAACGCGCUCCUAGGGAGCGCAAAUGAGAAGGGACAUGAGGAUCACCCAUGUAAAGA [Erditive] (puzzle: Exclusion 4) |  |  | apparent KD of MS2 coat protein [3]: 228 nM; apparent KD of MS2 coat protein [1]: 48.9 nM; apparent KD of MS2 coat protein [4]: 59.2 nM |
| CCUUUGUCAGGAUAUCAGUACAGGUCGAGUUUAGACCUGUUUGAGAAGGGACAUGAGGAUCACCCAUGUAAAAC [Inzaerle] (puzzle: Exclusion 4) |  |  | apparent KD of MS2 coat protein [1]: 78 nM |
| CGAAAGGUAGGAUAUACGAAGAAAAAGGGUAGAAUAAUAACACAUGAGGAUCACCCAUGUAGAAGGACCAAAGG [Mat - Exclusion 2 - Mod of my Tesla design - D12] (puzzle: Exclusion 2) |  |  | apparent KD of MS2 coat protein [3]: 13.3 nM; apparent KD of MS2 coat protein [1]: 19.4 nM; apparent KD of MS2 coat protein [4]: 33.2 nM |
| CGAGCACGUGUAAGGAUAUGCUCGCUCUAUUUGGCGCAGAAGGUACAUGAGGAUCACCCAUGUAGCGACUUGGG [Eternabot (L2) Solution 7] (Eterna round: R97, puzzle: Brourd's mod of Exclusion 4) | 41.6 | 27.6 |  |
| CGAGCUGCUGUGAGGAUAUACCUAUGGAUACAUAGGUAGAAGGCACAUGAGGAUCACCCAUGUCCUGCAGCUCG [jl-bmx4-4.60 Eli mod] (Eterna round: R97, puzzle: Brourd's mod of Exclusion 4) | 232 | 44 |  |
| CGAGCUUUUUGCUCGUCUUACAUGAGGAUCACCCAUGUCGAGCGAGCGAGCGAGCGAAAGUUUGUUUGUUUGUUUGA [Mod of sellena 3] (Eterna round: R97, puzzle: Sensor, turn-off variant 1) | 21.4 | 20.4 |  |

| Sequence | apparent KD of MS2 coat protein (input ligand: FMN 200 uM) [nM] | apparent KD of MS2 coat protein (input ligand: none) [nM] | also measured |
| --- | --- | --- | --- |
| CGAGGUAGAGGAUAUACGUGGAUGUAAAUUCAUGAUAUUCUACAUGAGGAUCACCCAUGUAGAAGGCUAUAGCG [JR_Ex2_Sub077] (Eterna round: R97, puzzle: Exclusion 2) | 26.9 | 18 |  |
| CGAGUACAUGAGGAUCACCCAUGUUAGGAUAUUGGUAUCAAAAGAGUCCGAUCUGAUCCAAGAAGGAGCAUGCC [Eternabot (L2) Solution 78] (Eterna round: R97, puzzle: Exclusion 1) | 32.5 | 27.1 |  |
| CGAGUCUACGAGGAUAUACUUUGAAUUAUCGGCGUAGAAGGCGUGACUUGAGGAUCACCCAAGUGAUAAACCUA [Ririaned] (Eterna round: R97, puzzle: Exclusion 6) | 54.1 | 39.6 |  |
| CGAUAUAAGUCAGGAUAUGAGCGCAACUGACGAUCAGAAGGGACACAUGAGGAUCACCCAUGUGAUCUAUCAAUAUUAUACAUC [Prohibition 92 - Jieux - Exclusion NG 1] (Eterna round: R96, puzzle: Exclusion NG 1) | 25.5 | 21.5 | apparent KD of MS2 coat protein [2]: 16.2 nM |
| CGAUAUUAUGUCAGGAUAUACAUUGCGAAAGCAAUGUAGAAGGGACAUGAGGAUCACCCAUGUUCCUACUAUCG [Omei A 1] (puzzle: Brourd's mod of Exclusion 4) |  |  | apparent KD of MS2 coat protein [1]: 11.9 nM |
| CGAUGAGGAGUGAGGAUAUCGUGUUCGAAAGAACGUGAGAAGGCACAUGAGGAUCACCCAUGUGAUCCUCAUCG [Omei Ex4B A21] (Eterna round: R97, puzzle: Brourd's mod of Exclusion 4) | 29.8 | 24.8 |  |
| CGAUGCACGAAUCCACAUGAGGAUCACCCAUGUCGUGUUAGCGAGGAUAUCGGAGACACAUAGUAUGAGAAGGCGCGAACCUGA [Ex NG3 #22] (Eterna round: R96, puzzle: Exclusion NG 3) | 13.1 | 13.1 | apparent KD of MS2 coat protein [2]: 11.9 nM |
| CGAUGGCGAGGAUAUACAUGAGGAUCACCCAUGUGAGAGAUACUAGUGAGGUCGAUUAGUAGAAGGCGCUGUCG [Mat - Exclusion 3 - Eli Mod - D70] (Eterna round: R97, puzzle: Exclusion 3) | 883 | 38.6 |  |
| CGAUGUAGAGGAUAUACGUGAAUUUUGUUAUUUUUUAAUUUACAUGAGGAUCACCCAUGUAGAAGGCUAUAUCG [JR_Ex2_Sub087] (Eterna round: R97, puzzle: Exclusion 2) | 91.9 | 22.2 |  |
| CGAUGUCUUCGGACAUCGAACAUGAGGAUCACCCAUGUAAUGAGCAGAUCUUCAUGCAAGCUUUUUGCUCGUCUUAU [Sensor v3 - turn-off variant 1 - 44] (puzzle: Sensor v3, turn-off variant 1) |  |  | apparent KD of MS2 coat protein [3]: 215 nM; apparent KD of MS2 coat protein [1]: 11.6 nM; apparent KD of MS2 coat protein [4]: 213 nM |
| CGAUGUGGAGUGAGGAUAUCGUGUUCGAAAGAACGUGAGAAGGCACAUGAGGAUCACCCAUGUGAUUCAUGUCG [Omei Ex4B A7] (Eterna round: R97, puzzle: Brourd's mod of Exclusion 4) | 40.9 | 26.2 |  |
| CGAUGUUAUGUCAGGAUAUGCGUUGCGAAAGCAAUGCAGAAGGGACAUGAGGAUCACCCAUGUCCUAACCAUCG [Omei A 5] (puzzle: Brourd's mod of Exclusion 4) |  |  | apparent KD of MS2 coat protein [1]: 12.7 nM |
| CGCAAAAGAGGAUAUACAUGAGGAUCACCCAUGUUUUCUCUUCAUAACGGAAACUCGUGUAGAAGGCUUGUGCG [EX3 C.18] (Eterna round: R97, puzzle: Exclusion 3) | 94.4 | 103 |  |
| CGCAAACAUGAGGAUCACCCAUGUGAGGAUAUCAUGCUUCGUAGUAAACUACGAAGUGUGAGAAGGCACGUGCG [Omei Ex1 D4] (Eterna round: R97, puzzle: Exclusion 1) | 42.9 | 29.9 |  |
| CGCAACGCAAGAGGAUAUGUUGGACAUGAGGAUCACCCAUGUAAAAUUGGCGAAACGCAUAUCCAGUAGAAGGCUUCCGAGCAA [Eternabot solution 15] (Eterna round: R96, puzzle: Exclusion NG 2) | 34.6 | 24.1 | apparent KD of MS2 coat protein [2]: 15.9 nM |
| CGCAUACAUGAGGAUCACCCAUGUGAGGAUAUCAUGCUUCGUAGUAAACUACGAAGUGUGAGAAGGCACAUGCG [Omei Ex1 D2] (Eterna round: R97, puzzle: Exclusion 1) | 112 | 62.6 |  |
| CGCAUGUGAGGAUAUUAGUAGUAGUCAGAAUAGACUAUUACUGAGAAGGUACAUGAGGAUCACCCAUGUAUCCG [Eli x4 4.21] (Eterna round: R97, puzzle: Exclusion 4) | 28.5 | 17.1 |  |
